Measured values: patent publication US20110076723A1, “ANTIBODY-PEPTIDE FUSED SYNERGIBODY” (SAMSUNG ELECTRONICS CO., LTD., priority 2008, published 2011)

T1: recombinant hAng-2 (recombinant protein with His tag attached to human Ang-2; R&D Systems) (human, UniProt O15123 19-496)
T1 construct: also called angiopoietin-2; ANGPT2
T1 sequence (looked up): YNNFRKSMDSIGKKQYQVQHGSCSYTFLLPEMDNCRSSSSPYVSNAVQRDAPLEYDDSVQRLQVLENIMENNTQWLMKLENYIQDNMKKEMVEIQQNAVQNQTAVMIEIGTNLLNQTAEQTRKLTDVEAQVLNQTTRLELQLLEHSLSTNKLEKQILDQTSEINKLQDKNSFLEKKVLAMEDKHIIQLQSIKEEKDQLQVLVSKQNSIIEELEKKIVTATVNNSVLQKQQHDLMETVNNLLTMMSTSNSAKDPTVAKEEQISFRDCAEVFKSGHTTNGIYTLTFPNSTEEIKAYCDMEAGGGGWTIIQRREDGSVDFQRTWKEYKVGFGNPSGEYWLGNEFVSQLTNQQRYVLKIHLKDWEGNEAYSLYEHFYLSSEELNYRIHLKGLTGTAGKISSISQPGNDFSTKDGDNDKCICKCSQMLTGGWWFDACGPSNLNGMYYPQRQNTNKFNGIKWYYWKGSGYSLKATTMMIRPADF


Key:
[1] = molecular target: T1, recombinant hAng-2 (recombinant protein …); test: competitive ELISA; synergibody titrated with 1 nM hAng-2 (His) on coated hTie2-Fc
Protocol: A competitive ELISA is performed to assess the molecular interaction of the binders. A 96-well MaxiSorp™ flat-bottom plate (Nunc) is coated with hTie2-Fc (R&D Systems), which is a fused protein including the water-soluble extracellular portion of human Tie-2 and Fc of human IgG₁ dissolved in DMEM culture solution containing 50 μg/ml bovine serum albumin (BSA). The concentration of hTie2-Fc used as a coating material is equivalent to 75% of its maximum binding concentration with 1 nM of recombinant hAng-2 (recombinant protein with His tag attached to human Ang-2; R&D Systems). Then the plate is washed five times with Phosphate Buffer Saline (PBS) containing 0.1% Tween-20 and blocked at room temperature for two hours with PBS containing 5% BSA. Each anti-Ang-2 antibodies are diluted from 100 nM by one-fourth each time with PBS containing 1% BSA and 1 nM hAng-2 and adjusted to 6.1 pM for Ang-2:Tie-2 neutralization ELISA. 100 μl of antibody/hAng-2 solutions are placed in each corresponding well and left to react at room temperature for two hours. Then the wells are washed five times with PBS containing 0.1% Tween-20, and the anti-His antibodies (GE Healthcare) are diluted to about 1:3,000 with PBS containing 1% BSA and left to react at room temperature for one hour. Afterwards, 100 μl of goat anti-mouse-IgG-HRP (Pierce) diluted with PBS containing 1% BSA to about 1:10,000 is added to each well of the plate, left to react at room temperature for one hour, and washed with PBS containing 0.1% Tween-20 five times. Lastly, 100 μl of TMB substrate (SIGMA) is added to each well of the plate to induce color reaction, and the reaction is stopped by adding 50 μl of 5N H₂SO₄ solution. The OD₄₅₀ value is read on a plate reader (Molecular Devices).
The method described in Example 1, Section 3 above is used, except that, in the present example, each fused protein synergibodies are diluted from 100 nM to one-fourth each time with PBS containing 1% BSA and 1 nM hAng-2 and adjusted to 6.1 pM for Ang-2:Tie-2 neutralization ELISA.

[2] = molecular target: T2, recombinant VEGFR-2 protein (water soluble extracellular site of human VEGFR-2 with Fc of human IgG1 … (human, UniProt P35968 20-764)); test: competitive ELISA; synergibody titrated with 1 nM VEGFR-2 on coated VEGF 165
T2 construct: extracellular domain; Bought; not shown: Fc of human IgG1
Protocol: Competitive ELISA is performed using the peptides synthesized above in Section 6A in order to assess the molecular interaction of the binders. […] Then the plate is washed five times with PBS containing 0.1% Tween-20, and blocked at room temperature for two hours with PBS containing 5% BSA. For VEGF:VEGFR-2 neutralization ELISA, each of the peptides synthesized in Section 6A above are diluted to one-fourth each time from 100 nM with PBS containing 1 nM VEGFR-2 and 1% BSA, and adjusted to 6.1 pM. 100 μl of peptide/VEGFR-2 solution is added to each well and the plate is left to react at room temperature for two hours. Subsequently, it is washed five times with PBS containing 0.1% Tween-20, mouse anti-VEGFR-2 antibodies (R&D Systems) is diluted to about 1:3,000 with PBS containing 1% BSA, and left to react at room temperature for one hour. Then 100 μl of goat anti-mouse-IgG-HRP (Pierce) diluted to about 1:10,000 with PBS containing 1% BSA is added to each well of the plate, left to react at room temperature for one hour, and washed five times with PBS containing 0.1% Tween-20. Lastly, 100 μl of TMB substrate (SIGMA) is added to each well of the plate to induce color reaction. The reaction is stopped by adding 50 μl of 5N H₂SO₄ solution, and the OD₄₅₀ value is read on a plate reader (Molecular Devices). Through the foregoing, the IC₅₀ value for the VEGF:VEGFR-2 binding capacity is obtained.
The method in Example 2, Section 6B above is used, except that, in the present example, each fused protein synergibodies are diluted from 100 nM to one-fourth each time with PBS containing 1% BSA and 1nM VEGFR-2 and adjusted to 6.1 pM for VEGF:VEGF-2 neutralization ELISA.

T2 sequence (P35968 20-764): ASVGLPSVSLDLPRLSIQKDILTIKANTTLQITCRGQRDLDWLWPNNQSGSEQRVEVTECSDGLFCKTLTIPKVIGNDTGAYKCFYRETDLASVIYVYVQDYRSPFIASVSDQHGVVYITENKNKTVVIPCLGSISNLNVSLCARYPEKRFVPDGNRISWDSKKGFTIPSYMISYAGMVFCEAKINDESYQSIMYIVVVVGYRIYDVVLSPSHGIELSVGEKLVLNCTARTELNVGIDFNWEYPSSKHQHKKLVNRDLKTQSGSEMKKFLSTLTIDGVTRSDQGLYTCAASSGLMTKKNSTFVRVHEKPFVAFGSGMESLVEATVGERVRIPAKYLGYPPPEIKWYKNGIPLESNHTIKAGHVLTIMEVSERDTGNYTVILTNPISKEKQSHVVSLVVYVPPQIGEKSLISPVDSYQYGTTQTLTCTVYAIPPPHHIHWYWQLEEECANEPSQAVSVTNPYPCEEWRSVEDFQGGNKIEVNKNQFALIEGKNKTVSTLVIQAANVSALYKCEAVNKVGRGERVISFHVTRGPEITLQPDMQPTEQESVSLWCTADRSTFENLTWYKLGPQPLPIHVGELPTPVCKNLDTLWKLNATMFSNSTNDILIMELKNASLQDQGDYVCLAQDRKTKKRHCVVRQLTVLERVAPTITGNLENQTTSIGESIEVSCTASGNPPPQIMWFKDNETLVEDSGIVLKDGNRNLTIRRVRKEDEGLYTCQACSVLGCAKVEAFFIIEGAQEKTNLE

Binder	IC50 [1]	IC50 [2]
Syn-Ang-VEGFR-15 (other, Chimeric (human IgG1) SAITAng-2-3 with the peptide at the C-terminus of the heavy chain; also called SAITAng-2-3 x DTN11VEGFR-2-5; not shown: human IgG1 heavy chain constant region with Fc region, from the vector; human light chain constant region, printed as 'constant region of human IgG1') heavy (part 1 of 2): DVQLVESGGGLVQPGGSRKLSCAASGFTFSSFGMHWVRQAPEKGLEWVAYISSDSSTIYYADTVKGRFTISRDNPKNTLFLQMTSLRSEDTAMYYCAREGGYDDYYAMDYWGQGTSVTVSS heavy (part 2 of 2): PGSQGYCHLNMRYQWICDSE light: DIQMTQSPASQSASLGESVTITCLASQTIGTWLAWYQQKPGKSPQLLIYAATSLADGVPSRFSGSGSGTKFSFKISSLQAEDFVSYYCQQLYSIPLTFGGGTKLEIK	0.925 nM	1.05 nM
Syn-Ang-VEGFR-16 (other, Chimeric (human IgG1) SAITAng-2-4 with the peptide at the C-terminus of the heavy chain; also called SAITAng-2-4 x DTN6VEGFR-2-1; not shown: human IgG1 heavy chain constant region with Fc region, from the vector; human light chain constant region, printed as 'constant region of human IgG1') heavy (part 1 of 2): QVQLQQSGAELARPGASVKLSCKASGYTFTDYYINWAKQRTGQGLEWIGEIYPGSGDTYYNEKFKGKATLTADKSSSTAYMQLSSLTSEDSAVYFCARYGYKGVYFDYWGQSTTLTVSS heavy (part 2 of 2): TGSDDLCYTFPCMHY light: ENVLTQSPAIMAASLGQKVTMTCSASSSVSSSYLHWYQQKSGASPKPLIHRTSNLASGVPARFSGSGSGTSYSLTISSVEAEDDATYYCQQWSGYPFTFGAGTKLELK	1.22 nM	1.16 nM
Syn-Ang-VEGFR-17 (other, Chimeric (human IgG1) SAITAng-2-4 with the peptide at the C-terminus of the heavy chain; also called SAITAng-2-4 x DTN8VEGFR-2-2; not shown: human IgG1 heavy chain constant region with Fc region, from the vector; human light chain constant region, printed as 'constant region of human IgG1') heavy (part 1 of 2): QVQLQQSGAELARPGASVKLSCKASGYTFTDYYINWAKQRTGQGLEWIGEIYPGSGDTYYNEKFKGKATLTADKSSSTAYMQLSSLTSEDSAVYFCARYGYKGVYFDYWGQSTTLTVSS heavy (part 2 of 2): EAGKETCGYEWQYCPRP light: ENVLTQSPAIMAASLGQKVTMTCSASSSVSSSYLHWYQQKSGASPKPLIHRTSNLASGVPARFSGSGSGTSYSLTISSVEAEDDATYYCQQWSGYPFTFGAGTKLELK	0.998 nM	1.05 nM

Further binders by falling IC50 [1], results first:

IC50 [1]	IC50 [2]	Binder
0.903 nM	0.914 nM	Syn-Ang-VEGFR-13 (other, Chimeric (human IgG1) SAITAng-2-3 with the peptide at the C-terminus of the heavy chain; also called SAITAng-2-3 x DTN9VEGFR-2-3; not shown: human IgG1 heavy chain constant region with Fc region, from the vector; human light chain constant region, printed as 'constant region of human IgG1') heavy (part 1 of 2): DVQLVESGGGLVQPGGSRKLSCAASGFTFSSFGMHWVRQAPEKGLEWVAYISSDSSTIYYADTVKGRFTISRDNPKNTLFLQMTSLRSEDTAMYYCAREGGYDDYYAMDYWGQGTSVTVSS heavy (part 2 of 2): EAGAYWCKAWGLSPCLVT light: DIQMTQSPASQSASLGESVTITCLASQTIGTWLAWYQQKPGKSPQLLIYAATSLADGVPSRFSGSGSGTKFSFKISSLQAEDFVSYYCQQLYSIPLTFGGGTKLEIK
0.887 nM	0.889 nM	Syn-Ang-VEGFR-14 (other, Chimeric (human IgG1) SAITAng-2-3 with the peptide at the C-terminus of the heavy chain; also called SAITAng-2-3 x DTN10VEGFR-2-4; not shown: human IgG1 heavy chain constant region with Fc region, from the vector; human light chain constant region, printed as 'constant region of human IgG1') heavy (part 1 of 2): DVQLVESGGGLVQPGGSRKLSCAASGFTFSSFGMHWVRQAPEKGLEWVAYISSDSSTIYYADTVKGRFTISRDNPKNTLFLQMTSLRSEDTAMYYCAREGGYDDYYAMDYWGQGTSVTVSS heavy (part 2 of 2): TGSGRMCDGSGPPTNCWFT light: DIQMTQSPASQSASLGESVTITCLASQTIGTWLAWYQQKPGKSPQLLIYAATSLADGVPSRFSGSGSGTKFSFKISSLQAEDFVSYYCQQLYSIPLTFGGGTKLEIK
0.833 nM	0.854 nM	Syn-Ang-VEGFR-12 (other, Chimeric (human IgG1) SAITAng-2-3 with the peptide at the C-terminus of the heavy chain; also called SAITAng-2-3 x DTN8VEGFR-2-2; not shown: human IgG1 heavy chain constant region with Fc region, from the vector; human light chain constant region, printed as 'constant region of human IgG1') heavy (part 1 of 2): DVQLVESGGGLVQPGGSRKLSCAASGFTFSSFGMHWVRQAPEKGLEWVAYISSDSSTIYYADTVKGRFTISRDNPKNTLFLQMTSLRSEDTAMYYCAREGGYDDYYAMDYWGQGTSVTVSS heavy (part 2 of 2): EAGKETCGYEWQYCPRP light: DIQMTQSPASQSASLGESVTITCLASQTIGTWLAWYQQKPGKSPQLLIYAATSLADGVPSRFSGSGSGTKFSFKISSLQAEDFVSYYCQQLYSIPLTFGGGTKLEIK
